This is an account of results in patent publication US20210130485A1 (DENALI THERAPEUTICS, published 2021).

Assay [1] deals with T1, Human transferrin receptor protein 1 (TFR1) (human, UniProt P02786 89-760, limits assumed).
T1 construct: also called human TfR
Put plainly: soft randomization libraries selected against human TfR.

The target of assay [2] is T1, Human transferrin receptor protein 1 …. Put plainly: selection of combinatorial CH3 libraries for binders to human TfR, affinity maturation.
For assay [3] the target is unchanged. Put plainly: binding ELISA, purified Fab-Fc fusion, TfR coated on the plate. How it is done: Binding ELISAs were conducted with purified Fab-Fc fusion variants with human or cyno TfR coated on the plate, as described above. The variants from the clone CH3C.18 maturation library, clone CH3C.3.2-1, clone CH3C.3.2-5, and clone CH3C.3.2-19, bound human and cyno TfR with approximately equivalent EC₅₀ values, whereas the parent clones CH3C.18 and CH3C.35 had greater than 10-fold better binding to human versus cyno TfR.
ELISA plates were coated with antigen, typically at […] overnight, then blocked with 1% BSA before addition of phage or periplasmic extracts. […] The plates were washed again, and then developed with TMB reagent and quenched with 2N sulfuric acid. Absorbance at 450 nm was quantified using a plate reader (BioTek®) and binding curves were plotted using Prism software where applicable. Absorbance signal for tested clones was compared to negative control (phage or paraplasmic extract lacking Fc). In some assays, soluble transferrin or other competitor was added during the binding step, typically at significant molar excess (greater than 10-fold excess).
A general note: ELISA stands for enzyme-linked immunosorbent assay.

T1 sequence (P02786 89-760 limits assumed): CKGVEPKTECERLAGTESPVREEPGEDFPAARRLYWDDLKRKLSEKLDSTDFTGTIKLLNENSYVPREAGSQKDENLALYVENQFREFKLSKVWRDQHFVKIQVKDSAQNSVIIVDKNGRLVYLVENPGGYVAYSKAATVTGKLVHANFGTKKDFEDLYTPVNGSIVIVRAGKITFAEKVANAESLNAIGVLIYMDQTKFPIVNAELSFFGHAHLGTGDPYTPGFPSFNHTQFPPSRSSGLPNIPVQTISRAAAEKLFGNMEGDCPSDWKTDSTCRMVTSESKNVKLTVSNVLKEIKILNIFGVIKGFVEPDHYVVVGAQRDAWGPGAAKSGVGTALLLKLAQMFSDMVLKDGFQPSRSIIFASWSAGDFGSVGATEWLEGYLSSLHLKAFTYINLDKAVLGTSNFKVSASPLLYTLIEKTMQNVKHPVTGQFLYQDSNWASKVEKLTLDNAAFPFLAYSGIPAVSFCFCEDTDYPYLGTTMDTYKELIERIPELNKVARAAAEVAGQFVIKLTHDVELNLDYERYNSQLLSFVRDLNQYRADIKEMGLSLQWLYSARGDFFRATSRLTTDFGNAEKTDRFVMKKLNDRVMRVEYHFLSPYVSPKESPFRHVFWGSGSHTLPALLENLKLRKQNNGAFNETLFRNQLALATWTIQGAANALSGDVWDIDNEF

B1: Clone CH3C.21 (designed binder)
chain: APELLGGPSVFLFPPKPKDTLMISRTPEVTCVVVDVSHEDPEVKFNWYVDGVEVHNAKTKPREEQYNSTYRVVSVLTVLHQDWLNGKEYKCKVSNKALPAPIEKTISKAKGQPREPQVYTLPPSRDELTKNQVSLTCLVKGFYPSDIAVEWESLGLVWVGYKTTPPVLDSDGSFFLYSKLTVPKSTWQQGWVFSCSVMHEALHNHYTQKSLSLSPGK
notes: Modified Fc polypeptide
With B1, the binding result in assay [1] is recorded as “binds”.

B2: Clone CH3C.25 (designed binder)
chain: APELLGGPSVFLFPPKPKDTLMISRTPEVTCVVVDVSHEDPEVKFNWYVDGVEVHNAKTKPREEQYNSTYRVVSVLTVLHQDWLNGKEYKCKVSNKALPAPIEKTISKAKGQPREPQVYTLPPSRDELTKNQVSLTCLVKGFYPSDIAVEWESMGHVWVGYKTTPPVLDSDGSFFLYSKLTVDKSTWQQGWVFSCSVMHEALHNHYTQKSLSLSPGK
notes: Modified Fc polypeptide
Take B2: in assay [1], the binding result is listed as “binds”.

B3: Clone CH3C.34 (designed binder)
chain: APELLGGPSVFLFPPKPKDTLMISRTPEVTCVVVDVSHEDPEVKFNWYVDGVEVHNAKTKPREEQYNSTYRVVSVLTVLHQDWLNGKEYKCKVSNKALPAPIEKTISKAKGQPREPQVYTLPPSRDELTKNQVSLTCLVKGFYPSDIAVEWESLGLVWVFSKTTPPVLDSDGSFFLYSKLTVPKSTWQQGWVFSCSVMHEALHNHYTQKSLSLSPGK
notes: Modified Fc polypeptide
Consider B3, for which the binding result in assay [1] is on record as “binds”.

B4: Clone CH3C.35.21 (designed binder)
chain: APELLGGPSVFLFPPKPKDTLMISRTPEVTCVVVDVSHEDPEVKFNWYVDGVEVHNAKTKPREEQYNSTYRVVSVLTVLHQDWLNGKEYKCKVSNKALPAPIEKTISKAKGQPREPQVYTLPPSRDELTKNQVSLTCLVKGFYPSDIAVWWESYGTEWSSYKTTPPVLDSDGSFFLYSKLTVTKEEWQQGFVFSCSVMHEALHNHYTQKSLSLSPGK
notes: Modified Fc polypeptide
B4: the binding result in assay [2] is recorded as “binds”.

B5: Clone CH3C.3.2-1 (designed binder)
chain: APELLGGPSVFLFPPKPKDTLMISRTPEVTCVVVDVSHEDPEVKFNWYVDGVEVHNAKTKPREEQYNSTYRVVSVLTVLHQDWLNGKEYKCKVSNKALPAPIEKTISKAKGQPREPQVYTLPPSRDELTKNQVSLTCLVKGFYPSDIAVEWESLGHVWVNFKTTPPVLDSDGSFFLYSKLTVPKSTWQQGWVFSCSVMHEALHNHYTQKSLSLSPGK
notes: Modified Fc polypeptide; also called CH3C.18.3.2-1
With B5, the binding result in assay [3] is “binds”.
